Consider 9 molecules from US12221481B2, “CD19 binding molecules and uses thereof” (Novartis AG, priority 2019, dated 2025).

In one data set the target is CD3-Fc. As to the kind of experiment: CD3 affinity measurement of anti-CD3 mAbs (Biacore T200). In kind it is binding. Particulars: as measured by Biacore; stated to be for identification, not absolute affinity values. From the text: For each trispecific construct, three plasmids were synthesized. […] It should be understood that with respect to the mentioned Biacore affinity values and relative terms in the construct names, these are used merely for identification purposes and are not intended to represent absolute affinity values. A second plasmid encoding a light chain was synthesized as a fusion comprising (in the N-terminal to C-terminal direction) (i) an anti-CD19 VL domain and (ii) a constant human kappa sequence. The proteins encoded by the first and second plasmids form the first half antibody. A third plasmid encoding the second half antibody was synthesized as a fusion comprising (in the N-terminal to C-terminal direction) (i) the IgV domain of CD58 (CD58-6) and (ii) a constant hIgG1 domain containing a T366W mutation for a knob to facilitate heterodimerization as well as silencing mutations.
Briefly, anti-hFc IgG1 was immobilized on a CM5 chip. After capturing CD3-Fc (1 μg/ml in HBS-EP+ buffer, flow rate of 50 μl/min, with a 30 second injection time) kinetic data was acquired by subsequent injections of 1:2 dilution series of the different antibodies in HBS-EP+ buffer.
Data were evaluated using the Biacore T200 evaluation software version 1.0. The raw data were double referenced, i.e. the response of the measuring flow cell was corrected for the response of the reference flow cell, and in a second step the response of a blank injection was subtracted. Finally, the sensorgrams were fitted by applying 1:1 binding model to calculate kinetic rate constants and dissociation equilibrium constants. Rmax was set at local. Data were processed individually for each run.
A general note: Surface plasmon resonance follows binding to a sensor surface in real time, without labels.

Another data set addresses T1, human CD19 (Homo sapiens, UniProt P15391).
T1 construct: expressed in transfected cells; host or cells: mouse cell line 300.19
T1 sequence (P15391 20-556): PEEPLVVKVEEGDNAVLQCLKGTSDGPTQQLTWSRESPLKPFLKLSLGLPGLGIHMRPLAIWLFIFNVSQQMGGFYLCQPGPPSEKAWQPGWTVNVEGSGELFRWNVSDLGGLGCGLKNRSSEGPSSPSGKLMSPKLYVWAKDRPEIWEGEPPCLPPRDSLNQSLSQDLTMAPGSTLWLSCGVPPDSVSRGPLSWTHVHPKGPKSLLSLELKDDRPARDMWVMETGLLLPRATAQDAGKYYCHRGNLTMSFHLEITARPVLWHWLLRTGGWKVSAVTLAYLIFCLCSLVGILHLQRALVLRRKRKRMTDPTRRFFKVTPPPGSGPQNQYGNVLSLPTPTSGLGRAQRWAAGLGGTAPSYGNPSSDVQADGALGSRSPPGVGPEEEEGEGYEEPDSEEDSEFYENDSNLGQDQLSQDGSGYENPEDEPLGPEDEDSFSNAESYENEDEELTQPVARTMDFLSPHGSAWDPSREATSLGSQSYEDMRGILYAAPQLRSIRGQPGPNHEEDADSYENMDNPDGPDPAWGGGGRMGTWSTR
As to the kind of experiment: Binding of TBMs to 300.19 cells overexpressing human CD19 (FACS). Particulars: for binding to human CD19 compared with cyno CD19: 300.19 cells overexpressing human or cyno CD19. Here is the method:
(§1) The mouse cell line 300.19 was engineered to overexpress either human CD19 or cyno CD19. Cells were cultured in RPMI medium (Invitrogen #11875-093) with 10% FBS and 2-mercaptoethanol. Cells were harvested and resuspended in FACS buffer (PBS containing 1% FBS). 50,000 cells per well were plated in a V-bottom 96-well plate. Each cell line was incubated with serial dilutions of TBMs of Example 1A (i.e., R variants) for one hour on ice. Cells were centrifuged for 4 min at 400×g and washed with FACS buffer. This was repeated twice, and then the cells were incubated with Alexa-647 labeled anti-human Fc secondary antibody (Jackson Immuno #109-605-098) for 30 min on ice. The cells were washed twice, then resuspended in 100 μL of FACS buffer. FACS data was collected on a Beckman Coulter Cytoflex and analysis was performed using CytExpert v2.3.

In the next data set the test system is cyno CD19. As to the kind of experiment: Binding of TBMs to 300.19 cells overexpressing cyno CD19 (FACS). More on the design: species or system cynomolgus. Here is the method:
as §1

Data set [1] can be described thus: Thermal stability of CD58 variants by differential scanning calorimetry (DSC). Format: physicochemical. Particulars: HBS, 0.5 mg/mL. The protocol:
For DSC, all samples were dialyzed into HEPES-buffered saline (HBS) and diluted to final concentration of 0.5 mg/mL. Tm and Tonset were determined using a MicroCal VP-Capillary DSC system (Malvern) by increasing temperature from 25° C. to 100° C. at 1° C./minute with a filtering period of 2 seconds and a mid-gain setting.
In general terms: DSC measures the heat that a sample takes up or gives off during a temperature scan.

A short description of data set [2]: Thermal stability of CD58 variants by differential scanning fluorimetry (DSF). In kind it is physicochemical. Here is the method: Disulfide stabilized variants were assessed for improved thermal stability using both differential scanning calorimetry (DSC) and differential scanning fluorimetry (DSF) using standard techniques. For DSF, 1-3 ug of each construct was add to 1× Sypro Orange (Thermo-Fisher) in 25 ul total volume in 96-well PCR plate. Using a Bio-Rad CFX96 RT-PCR system equipped with C1000 Thermal Cycler, the temperature was increased from 25° C. to 95° C. at 0.5° C./minute and the fluorescence monitored. The manufacturer-supplied software was used to determine Tm.
Background: Differential scanning fluorimetry follows unfolding on heating by fluorescence.

B1: CD3hi: anti-CD3 antibody having high affinity to CD3 (in relative terms) (antibody, V domains shown)
VH: EVQLVESGGGLVQPGGSLKLSCAASGFTFNTYAMNWVRQASGKGLEWVGRIRSKYNNYATYYADSVKDRFTISRDDSKSTLYLQMNSLKTEDTAVYYCVRHGNFGNSYVSWFAYWGQGTLVTVSS
VL: QAVVTQEPSLTVSPGGTVTLTCRSSTGAVTTSNYANWVQQKPGQAPRGLIGGTNKRAPWTPARFSGSLLGDKAALTLSGAQPEDEAEYFCALWYSNLWVFGGGTKLTVL
The term Kd denotes a measure of binding affinity in units of concentration. The low end stands for tighter binding, the high end for weaker binding. B1 registered a Kd on CD3-Fc of 16 nM.

B2: CD3lo: anti-CD3 antibody having low affinity to CD3 (in relative terms) (antibody, V domains shown)
VH: EVQLVESGGGLVQPGGSLKLSCAASGFTFNTYAMNWVRQASGKGLEWVGRIRSKYNNYATYYADSVKDRFTISRDDSKSTAYLQMNSLKTEDTAVYYCVRHGNFGNSYVSWFAYWGQGTLVTVSS
VL: QAVVTQEPSLTVSPGGTVTLTCRSSTGAVTTSNYANWVQQKPGQAPRGLIGGTNKRAPWTPARFSGSLLGDKAALTLSGAQPEDEAEYFCALWYSNLWVFGGGTKLTVL
B2: on CD3-Fc, the Kd came out at 48 nM.

B3: CD3med: anti-CD3 antibody having medium affinity to CD3 (in relative terms) (antibody, V domains shown)
VH: EVQLVESGGGLVQPGGSLKLSCAASGFTFNTYAMNWVRQASGKGLEWVGRIRSKYNNYATYYADSVKDRFTISRDDSKNTAYLQMNSLKTEDTAVYYCVRHGNFGNSYVSWFAHWGQGTLVTVSS
VL: QAVVTQEPSLTVSPGGTVTLTCGSSTGAVTSSNYANWVQQKPGQAPRGLIGGTNKRAPWTPARFSGSLLGGKAALTLSGAQPEDEAEYYCALWYSNLWVFGGGTKLTVL
B3 registered a Kd on CD3-Fc of 30 nM.

B4: NEG218: CD19 antibody; VH SEQ ID NO:39, VL SEQ ID NO:52 (antibody, V domains shown)
VH: EVQLVQSGAEVKKPGESLKISCKASGYSFTNYWMNWVRQMPGKGLEWMGMIHPSDSEIRLNQKFQGQVTLSVDKSIGTAYMQWSSLKASDTAMYYCSRWYYLSSPMDYWGQGTTVTVSS
VL: EIVMTQSPATLSVSPGERATLSCRASQDVGTAVAWYQQKPGQAPRLLIYWASTRHTGIPARFSGSGSGTEFTLTISSLQSEDFAVYFCQQYSSYPYTFGQGTKLEIK
As for B4, in the data set with human CD19, the “binding to human CD19 compared with cyno CD19” value is recorded as “greater affinity for cyno CD19 than human CD19”.

B5: NEG258: CD19 antibody; VH SEQ ID NO:13, VL SEQ ID NO:26 (antibody, V domains shown)
VH: QVQLVQSGAEVKKPGASVKVSCKASGYTFTTYWIQWVRQAPGQRLEWMGAVYPGDADTRYTQKFQGRVTLTADRSASTAYMELSSLRSEDTAVYYCGRDAGLEYYALDYWGQGTLVTVSS
VL: EIVMTQSPATLSVSPGERATLSCRASQDVGTAVAWYQQKPGQAPRLLIYWASTRHTGIPARFSGSGSGTEFTLTISSLQSEDFAVYFCQQYANFPLYTFGQGTKLEIK
Regarding B5, in the data set with human CD19, the “affinity for human CD19, NEG258 vs NEG218” value is “greater affinity for both human CD19 and cyno CD19”; the “binding to human CD19 compared with cyno CD19” value was “bind equally to both human and cyno”. Besides, the “affinity for cyno CD19, NEG258 vs NEG218” value with cyno CD19 is “greater affinity for both human CD19 and cyno CD19”.

B6: IgV V54C_G88C: CD58 IgV domain with V54 and G88 replaced by cysteines (stabilizing disulfide) (protein)
chain: SQQIYGVVYGNVTFHVPSNVPLKECLWKKQKDKVAELENSEFRAFSSFKNRVYLDTVSCSLTIYNLTSSDEDEYEMESPNITDTMKFFLYVLESGGGGSHHHHHHHH
For B6, in data set [1], the “Tm by Differential Scanning Calorimetry (DSC)” value turned out to be 80.9 °C and the “Tmonset by Differential Scanning Calorimetry (DSC)” value came out at 66.7 °C. In data set [2], the “Tm by Differential Scanning Fluorimetry (DSF)” value amounted to 76.5 °C.

B7: IgV V45C_M105C: CD58 IgV domain with V45 and M105 replaced by cysteines (stabilizing disulfide) (protein)
chain: SQQIYGVVYGNVTFHCPSNVPLKEVLWKKQKDKVAELENSEFRAFSSFKNRVYLDTVSGSLTIYNLTSSDEDEYECESPNITDTMKFFLYVLESGGGGSHHHHHHHH
In the case of B7, in data set [1], the “Tm by Differential Scanning Calorimetry (DSC)” value is 66.8 °C and the “Tmonset by Differential Scanning Calorimetry (DSC)” value came out at 43.9 °C. Besides, the “Tm by Differential Scanning Fluorimetry (DSF)” value in data set [2] was 48.5 °C.

B8: CD58_IgV: recombinant human CD58 IgV domain (domain 1), no added disulfide (protein)
chain: SQQIYGVVYGNVTFHVPSNVPLKEVLWKKQKDKVAELENSEFRAFSSFKNRVYLDTVSGSLTIYNLTSSDEDEYEMESPNITDTMKFFLYVLESGGGGSHHHHHHHH
In the case of B8, in data set [1], the “Tm by Differential Scanning Calorimetry (DSC)” value is 60.9 °C and the “Tmonset by Differential Scanning Calorimetry (DSC)” value turned out to be 46.3 °C. Further, the “Tm by Differential Scanning Fluorimetry (DSF)” value in data set [2] came out at 48.5 °C.

B9: IgV V45C_M114C: CD58 IgV domain with V45 and M114 replaced by cysteines (stabilizing disulfide) (protein)
chain: SQQIYGVVYGNVTFHCPSNVPLKEVLWKKQKDKVAELENSEFRAFSSFKNRVYLDTVSGSLTIYNLTSSDEDEYEMESPNITDTCKFFLYVLESGGGGSHHHHHHHH
For the molecule B9, in data set [1], the “Tm by Differential Scanning Calorimetry (DSC)” value amounted to 72.5 °C and the “Tmonset by Differential Scanning Calorimetry (DSC)” value turned out to be 49.6 °C. In data set [2], the “Tm by Differential Scanning Fluorimetry (DSF)” value came to 63.5 °C.
